Test [1] addresses T1, (His)6-NLRP1 (NLR family, pyrin domain-containing 1), purified recombinant full-length protein from Sf21 cells (human) (UniProt Q9C000).
T1 sequence: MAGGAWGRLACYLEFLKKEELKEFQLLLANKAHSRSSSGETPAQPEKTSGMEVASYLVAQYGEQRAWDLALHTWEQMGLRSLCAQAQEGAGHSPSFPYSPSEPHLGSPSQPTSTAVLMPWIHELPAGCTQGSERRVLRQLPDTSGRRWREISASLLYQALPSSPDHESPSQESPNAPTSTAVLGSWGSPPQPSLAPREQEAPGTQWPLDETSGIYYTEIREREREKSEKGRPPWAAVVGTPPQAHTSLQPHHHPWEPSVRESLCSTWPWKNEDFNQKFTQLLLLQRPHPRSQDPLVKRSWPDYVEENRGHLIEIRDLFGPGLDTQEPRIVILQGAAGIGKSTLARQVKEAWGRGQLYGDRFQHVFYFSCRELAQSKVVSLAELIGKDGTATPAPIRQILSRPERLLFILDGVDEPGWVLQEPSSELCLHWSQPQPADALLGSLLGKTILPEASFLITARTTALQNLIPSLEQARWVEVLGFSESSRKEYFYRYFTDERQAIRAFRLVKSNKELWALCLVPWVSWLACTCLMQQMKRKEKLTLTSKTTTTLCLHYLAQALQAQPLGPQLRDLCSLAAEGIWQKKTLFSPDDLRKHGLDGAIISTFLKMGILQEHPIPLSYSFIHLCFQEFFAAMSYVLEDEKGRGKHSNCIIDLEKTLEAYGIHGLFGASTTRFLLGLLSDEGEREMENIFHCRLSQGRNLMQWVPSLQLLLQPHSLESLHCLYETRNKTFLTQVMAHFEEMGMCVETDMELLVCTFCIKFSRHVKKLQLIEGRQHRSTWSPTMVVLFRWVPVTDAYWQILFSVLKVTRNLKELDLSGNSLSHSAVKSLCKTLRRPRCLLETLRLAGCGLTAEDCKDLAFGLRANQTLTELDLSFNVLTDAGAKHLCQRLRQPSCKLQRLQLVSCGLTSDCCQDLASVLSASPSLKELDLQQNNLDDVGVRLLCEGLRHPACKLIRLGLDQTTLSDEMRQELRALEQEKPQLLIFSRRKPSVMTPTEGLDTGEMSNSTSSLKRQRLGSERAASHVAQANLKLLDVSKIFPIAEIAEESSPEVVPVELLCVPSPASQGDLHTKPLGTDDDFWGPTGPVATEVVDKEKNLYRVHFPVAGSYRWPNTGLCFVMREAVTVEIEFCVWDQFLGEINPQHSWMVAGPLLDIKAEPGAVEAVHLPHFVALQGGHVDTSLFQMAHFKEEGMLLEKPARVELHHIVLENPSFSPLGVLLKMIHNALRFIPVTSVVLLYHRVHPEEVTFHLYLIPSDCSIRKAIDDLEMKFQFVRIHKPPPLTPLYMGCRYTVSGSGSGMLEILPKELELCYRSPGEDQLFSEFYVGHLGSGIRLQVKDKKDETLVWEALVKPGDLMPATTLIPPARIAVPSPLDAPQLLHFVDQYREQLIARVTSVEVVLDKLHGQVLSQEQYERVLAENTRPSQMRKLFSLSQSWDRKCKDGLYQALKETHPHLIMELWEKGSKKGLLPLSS
The test is described as follows: cell-based or functional assay.

Test [2] concerns the target T1, (His)6-NLRP1 (NLR family, pyrin domain-containing 1), purified recombinant full-length protein from Sf21 cells (human). The test is described as follows: enzyme kinetics of the reconstituted NLRP1 inflammasome (Caspase-1 activity on Ac-WEHD-AMC); Ki from the competitive inhibition equation.

For Bcl-2 Loop peptide 35-83 (synthetic), in test [1], the IC50 (concentration to inhibit NLRP1-induced Caspase-1 activity by 50%) is 11.4 nM.
For “GST-Bcl-2 (Bcl-2 lacking its C-terminal transmembrane domain, ~last 20 amino acids) (from UniProt P08515 1-218; P10415 1-218)”, in test [2], the Ki is 8.23 nM. Besides, in test [1], the FITC-ATP binding to NLRP1 (FPA), reduction was determined as 60%.

Values taken from patent US20100093623A1, “COMPOSITIONS AND METHODS FOR […]-LIKE RECEPTOR ACTIVITY AND USES THEREOF” (Burnham Institute for Medical Research, priority 2008, published 2010).
